Target: the molecule itself
Assay: cryo-EM structure

B1: C1-GS4 (Aae NtrC1 residues 121–387 with GSGSLGQYL at the C-terminus) (other)
chain: LRKENELLRREKDLKEEEYVFESPKMKEILEKIKKISCAECPVLITGESGVGKEVVARLIHKLSDRSKEPFVALNVASIPRDIFEAELFGYEKGAFTGAVSSKEGFFELADGGTLFLDEIGELSLEAQAKLLRVIESGKFYRLGGRKEIEVNVRILAATNRNIKELVKEGKFREDLYYRLGVIEIEIPPLRERKEDIIPLANHFLKKFSRKYAKEVEGFTKSAQELLLSYPWYGNVRELKNVIERAVLFSEGKFIDRGELSCLVNSKGSGSLGQYL
- binding result: binds
